Data from PMC9536601, “Binding of adenovirus species C hexon to prothrombin and the influence of hexon on vector properties in vitro and in vivo” (PLoS Pathogens, 2022).

Experiments:
Conditions in all cases: both partners purified
[1] = target: T1, hexon of Ad5.5 (Ad5 vector, hexon HVR7 VINTDTL), on the virion (human adenovirus type 5, UniProt P04133 2-952, VINTETL to VINTDTL (HVR7; position worked out from the printed T425A)); test: SPR; Biacore T200; about 300 to 5,000 RU of Ad virions immobilised on a CM5 chip, coagulation factors flowed over at four concentrations, 50 uL/min; 10 mM HEPES, 150 mM NaCl, 1 mM CaCl2, 0.5 mM MgCl2, 0.1% BSA, 0.05% polysorbate 20, pH 7.4; global fit to a 1:1 kinetic interaction model, double referencing
T1 construct: hexon of human adenovirus type 5, whole as in the capsid of the virion; HVR7 segment changed; The whole virion was immobilised; source: 293 cells, virions purified by CsCl ultracentrifugation

[2] = target: T2, hexon of Ad5.6 (Ad5 vector, hexon HVR7 VIRTDTL), on the virion (human adenovirus type 5, UniProt P04133 2-952, VINTETL to VIRTDTL (HVR7; position worked out from the printed T425A)); test: as above
T2 construct: hexon of human adenovirus type 5, whole as in the capsid of the virion; HVR7 segment changed; The whole virion was immobilised; source: 293 cells, virions purified by CsCl ultracentrifugation

[3] = target: T3, hexon of Ad5.0 (E1/E3-deleted Ad5 vector with wild-type Ad5 capsid), on the virion (human adenovirus type 5, UniProt P04133 2-952); test: as above
T3 construct: hexon of human adenovirus type 5, whole as in the capsid of the virion; HVR7 segment VINTETL; The whole virion was immobilised; The other capsid proteins are not written; also called VINTETL; source: 293 cells, virions purified by CsCl ultracentrifugation

[4] = target: T4, hexon of Ad5.4 (Ad5 vector, hexon HVR7 VINTATL), on the virion (human adenovirus type 5, UniProt P04133 2-952, VINTETL to VINTATL (HVR7; position worked out from the printed T425A)); test: as above
T4 construct: hexon of human adenovirus type 5, whole as in the capsid of the virion; HVR7 segment changed; The whole virion was immobilised; source: 293 cells, virions purified by CsCl ultracentrifugation

[5] = target: T5, human coagulation factor X (human, UniProt P00742 41-488, gamma-carboxylated glutamate residues in the Gla domain); test: SPR; Biacore T200; about 300 to 5,000 RU of Ad virions immobilised on a CM5 chip, coagulation factors flowed over at four concentrations, 50 uL/min; running buffer 10 mM HEPES, 150 mM NaCl, 1 mM CaCl2, 0.5 mM MgCl2, 0.1% BSA, 0.05% polysorbate 20, pH 7.4; regeneration with 3 mM EDTA; global fit to a 1:1 kinetic interaction model, double referencing
T5 construct: coagulation factor X, human, plasma-derived; written here as one entry; also called human FX; FX; source: bought: Haematologic Technologies, Inc. (HCX-0050), plasma-derived

[6] = target: T6, human prothrombin (coagulation factor II) (human, UniProt P00734 44-622, gamma-carboxylated glutamate residues in the Gla domain); test: as above
T6 construct: prothrombin (FII), human, plasma-derived; also called human FII; FII; source: bought: Haematologic Technologies, Inc. (HCP-0010), plasma-derived

[7] = target: T7, mouse coagulation factor X (mouse, UniProt O88947 41-481, gamma-carboxylated glutamate residues in the Gla domain); test: as above
T7 construct: coagulation factor X, mouse, plasma-derived; Pretreated with 125 uM GGACK (EGRCK); written here as one entry; also called mouse FX; source: bought: Haematologic Technologies, Inc. (MCX-5050), plasma-derived

[8] = target: T8, mouse prothrombin (coagulation factor II) (mouse, UniProt P19221 44-618, gamma-carboxylated glutamate residues in the Gla domain); test: as above
T8 construct: prothrombin (FII), mouse, plasma-derived; also called mouse FII
T8 sequence (P19221 44-618): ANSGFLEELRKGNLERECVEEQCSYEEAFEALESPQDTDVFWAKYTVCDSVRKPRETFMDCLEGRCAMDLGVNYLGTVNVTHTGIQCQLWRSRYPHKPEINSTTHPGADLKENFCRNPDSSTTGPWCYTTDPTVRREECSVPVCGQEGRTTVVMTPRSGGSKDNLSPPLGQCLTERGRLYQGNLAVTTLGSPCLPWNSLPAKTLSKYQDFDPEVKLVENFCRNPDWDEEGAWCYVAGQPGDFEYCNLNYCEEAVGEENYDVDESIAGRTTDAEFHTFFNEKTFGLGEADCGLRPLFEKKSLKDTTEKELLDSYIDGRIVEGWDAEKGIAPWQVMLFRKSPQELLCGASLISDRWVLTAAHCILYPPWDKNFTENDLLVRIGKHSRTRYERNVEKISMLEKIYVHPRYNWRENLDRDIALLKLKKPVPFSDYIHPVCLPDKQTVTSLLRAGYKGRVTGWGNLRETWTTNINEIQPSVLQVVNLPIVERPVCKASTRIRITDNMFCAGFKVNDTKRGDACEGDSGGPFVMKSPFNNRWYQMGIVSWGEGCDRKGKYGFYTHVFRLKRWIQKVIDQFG

[9] = target: T9, bovine coagulation factor X (bovine, UniProt P00743 41-492, gamma-carboxylated glutamate residues in the Gla domain); test: as above
T9 construct: coagulation factor X, bovine, plasma-derived; Pretreated with 125 uM GGACK (EGRCK); written here as one entry; also called bovine FX; source: bought: Haematologic Technologies, Inc. (BCX-1050), plasma-derived

[10] = target: T10, bovine prothrombin (coagulation factor II) (bovine, UniProt P00735 44-625, gamma-carboxylated glutamate residues in the Gla domain); test: as above
T10 construct: prothrombin (FII), bovine, plasma-derived; also called bovine FII; source: bought: Haematologic Technologies, Inc. (BCP-1010), plasma-derived
T10 sequence (P00735 44-625): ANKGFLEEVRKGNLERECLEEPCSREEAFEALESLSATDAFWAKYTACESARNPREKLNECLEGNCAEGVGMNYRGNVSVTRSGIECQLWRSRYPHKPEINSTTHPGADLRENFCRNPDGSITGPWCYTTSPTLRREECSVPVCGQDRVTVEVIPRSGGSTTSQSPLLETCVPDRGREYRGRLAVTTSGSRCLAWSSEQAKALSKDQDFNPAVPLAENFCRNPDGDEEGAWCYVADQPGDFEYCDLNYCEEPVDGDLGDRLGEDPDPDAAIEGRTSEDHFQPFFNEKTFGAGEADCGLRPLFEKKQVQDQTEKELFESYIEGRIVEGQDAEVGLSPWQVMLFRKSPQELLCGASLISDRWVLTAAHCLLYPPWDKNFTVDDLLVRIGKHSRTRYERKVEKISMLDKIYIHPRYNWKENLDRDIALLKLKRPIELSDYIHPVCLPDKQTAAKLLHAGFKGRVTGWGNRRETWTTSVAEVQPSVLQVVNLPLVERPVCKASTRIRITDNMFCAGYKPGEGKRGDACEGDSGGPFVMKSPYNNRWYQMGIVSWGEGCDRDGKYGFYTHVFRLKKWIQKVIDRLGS

B1: mouse prothrombin (coagulation factor II) (natural protein)
chain: not shown
modifications: γ-carboxylated glutamate residues in the Gla domain (positions not given)
notes: prothrombin (FII), mouse, plasma-derived; also called Mouse FII; source: dialyzed
[1]
  Kd: 216 nM
[2]
  Kd: 420 nM
[3]
  Kd: 2000 nM
[4]
  Kd: 36000 nM

B2: mouse coagulation factor X (natural protein, UniProt O88947 41-481, looked up)
chain: ANSFFEEFKKGNLERECMEEICSYEEVREIFEDDEKTKEYWTKYKDGDQCESSPCQNQGACRDGIGGYTCTCSEGFEGKNCELFVRKLCRLDNGDCDQFCREEQNSVVCSCASGYFLGNDGKSCISTAPFPCGKITTGRRKRSVALNTSDSELDLEDALLDEDFLSPTENPIELLNLNETQPERSSDDLVRIVGGRECKDGECPWQALLINEDNEGFCGGTILNEFYILTAAHCLHQARRFKVRVGDRNTEKEEGNEMVHEVDVVIKHNKFQRDTYDYDIAVLRLKTPITFRMNVAPACLPQKDWAESTLMTQKTGIVSGFGRTHEKGRQSNILKMLEVPYVDRNTCKLSTSFSITQNMFCAGYEAKLEDACQGDSGGPHVTRFKNTYYVTGIVSWGEGCARKGKYGIYTKVTTFLKWIDRSMKARVGPTAETPRTAGPPN
modifications: γ-carboxylated glutamate residues in the Gla domain (positions not given)
notes: coagulation factor X, mouse, plasma-derived; also called Mouse FX; source: bought: Haematologic Technologies, Inc. (MCX-5050), plasma-derived; pretreated with GGACK, dialyzed
[1]
  Kd: 2.5 nM
[2]
  Kd: 0.37 nM
[3]
  Kd: 0.32 nM
[4]
  Kd: 1.9 nM

B3: bovine coagulation factor X (natural protein, UniProt P00743 41-492, looked up)
chain: ANSFLEEVKQGNLERECLEEACSLEEAREVFEDAEQTDEFWSKYKDGDQCEGHPCLNQGHCKDGIGDYTCTCAEGFEGKNCEFSTREICSLDNGGCDQFCREERSEVRCSCAHGYVLGDDSKSCVSTERFPCGKFTQGRSRRWAIHTSEDALDASELEHYDPADLSPTESSLDLLGLNRTEPSAGEDGSQVVRIVGGRDCAEGECPWQALLVNEENEGFCGGTILNEFYVLTAAHCLHQAKRFTVRVGDRNTEQEEGNEMAHEVEMTVKHSRFVKETYDFDIAVLRLKTPIRFRRNVAPACLPEKDWAEATLMTQKTGIVSGFGRTHEKGRLSSTLKMLEVPYVDRSTCKLSSSFTITPNMFCAGYDTQPEDACQGDSGGPHVTRFKDTYFVTGIVSWGEGCARKGKFGVYTKVSNFLKWIDKIMKARAGAAGSRGHSEAPATWTVPPPLPL
modifications: γ-carboxylated glutamate residues in the Gla domain (positions not given)
notes: coagulation factor X, bovine, plasma-derived; also called Bovine FX; source: bought: Haematologic Technologies, Inc. (BCX-1050), plasma-derived; pretreated with GGACK, dialyzed
[1]
  Kd: 438 nM
[2]
  Kd: 1620 nM
[3]
  Kd: 270 nM
[4]
  Kd: 540 nM

B4: hexon of wild-type human adenovirus type 6 (on virions) (natural protein)
chain: ATPSMMPQWSYMHISGQDASEYLSPGLVQFARATETYFSLNNKFRNPTVAPTHDVTTDRSQRLTLRFIPVDREDTAYSYKARFTLAVGDNRVLDMASTYFDIRGVLDRGPTFKPYSGTAYNALAPKGAPNSCEWEQNETAQVDAQELDEEENEANEAQAREQEQAKKTHVYAQAPLSGIKITKEGLQIGTADATVAGAGKEIFADKTFQPEPQVGESQWNEADATAAGGRVLKKTTPMKPCYGSYARPTNSNGGQGVMVEQNGKLESQVEMQFFSTSTNATNEVNNIQPTVVLYSEDVNMETPDTHLSYKPKMGDKNAKVMLGQQAMPNRPNYIAFRDNFIGLMYYNSTGNMGVLAGQASQLNAVVDLQDRNTELSYQLLLDSIGDRTRYFSMWNQAVDSYDPDVRIIENHGTEDELPNYCFPLGGIGITDTFQAVKTTAANGDQGNTTWQKDSTFAERNEIGVGNNFAMEINLNANLWRNFLYSNIALYLPDKLKYNPTNVEISDNPNTYDYMNKRVVAPGLVDCYINLGARWSLDYMDNVNPFNHHRNAGLRYRSMLLGNGRYVPFHIQVPQKFFAIKNLLLLPGSYTYEWNFRKDVNMVLQSSLGNDLRVDGASIKFDSICLYATFFPMAHNTASTLEAMLRNDTNDQSFNDYLSAANMLYPIPANATNVPISIPSRNWAAFRGWAFTRLKTKETPSLGSGYDPYYTYSGSIPYLDGTFYLNHTFKKVAITFDSSVSWPGNDRLLTPNEFEIKRSVDGEGYNVAQCNMTKDWFLVQMLANYNIGYQGFYIPESYKDRMYSFFRNFQPMSRQVVDDTKYKDYQQVGIIHQHNNSGFVGYLAPTMREGQAYPANVPYPLIGKTAVDSITQKKFLCDRTLWRIPFSSNFMSMGALTDLGQNLLYANSAHALDMTFEVDPMDEPTLLYVLFEVFDVVRVHRPHRGVIETVYLRTPFSAGNATT
[5]
  Kd: 28 nM
  koff: 0.00326 s⁻¹
  kon: 116000 M⁻¹ s⁻¹
[6]
  Kd: 2.7 nM
  koff: 0.000182 s⁻¹
  kon: 67000 M⁻¹ s⁻¹
[7]
  Kd: 0.42 nM
  koff: 4.08e-05 s⁻¹
  kon: 96600 M⁻¹ s⁻¹
[8]
  Kd: 9.9 nM
  koff: 0.000575 s⁻¹
  kon: 58200 M⁻¹ s⁻¹
[9]
  Kd: 100 nM
  koff: 0.0147 s⁻¹
  kon: 144000 M⁻¹ s⁻¹
[10]
  Kd: 75 nM
  koff: 0.00395 s⁻¹
  kon: 53000 M⁻¹ s⁻¹
